The target of assay [1] is TSHR (full length) coated on tubes (human) (UniProt P16473). Nature of the assay: inhibition of 125I-K1-18 Fab (competitor) binding to TSHR coated tubes; negative control 0.1 µg/mL in HBD serum.
The target in assay [2] is human TSH receptor (full length) coated on ELISA plate wells (human) (UniProt P16473). Nature of the assay: TSH-biotin binding inhibition ELISA, TSHR coated wells; 0.1 µg/mL in assay buffer; negative control MAb.
Assay [3] addresses human thyroid stimulating hormone receptor (TSHR), full length (human) (UniProt P16473). Briefly: 125I-K1-70 Fab (competitor) binding to TSHR coated tubes; negative control MAb 0.001 µg/mL in HBD serum.
For assay [4], the target named is human TSH receptor (full length) coated on ELISA plate wells (human) (UniProt P16473). Nature of the assay: TSH-biotin binding inhibition ELISA, TSHR coated wells; 100 µg/mL in assay buffer + 100 µg/mL 5B3 IgG; negative control MAb. (ELISA stands for enzyme-linked immunosorbent assay.)
The target of assay [5] is TSHR (thyroid stimulating hormone receptor), full length human (human) (UniProt P16473). Briefly: negative control; competitor ^125I-K1-70 IgG, TSHR coated tubes; 1 µg/mL in HBD.
Assay [6] has as its target TSH receptor (full length human TSHR) (human) (UniProt P16473). Nature of the assay: competition ELISA: inhibition of M22 Fab-peroxidase (competitor) binding to TSHR coated wells; negative control at 10 µg/mL diluted in HBD serum pool.
Assay [7] has as its target TSHR (full length) coated on tubes (human) (UniProt P16473). Nature of the assay: inhibition of 125I-K1-18 Fab (competitor) binding to TSHR coated tubes; negative control 10 µg/mL in HBD serum.
The target of assay [8] is TSHR (thyroid stimulating hormone receptor), full length human (human) (UniProt P16473). Briefly: negative control; competitor ^125I-K1-70 IgG, TSHR coated tubes; 1 µg/mL in assay buffer.
Assay [9] deals with human TSH receptor (full length) coated on ELISA plate wells (human) (UniProt P16473). Briefly: TSH-biotin binding inhibition ELISA, TSHR coated wells; 0.1 µg/mL in HBD serum pool; negative control MAb.
For assay [10], the target named is TSH receptor (TSHR) coated on tubes (human) (UniProt P16473). Briefly: inhibition of 125I-K1-70 IgG binding to TSHR coated tubes; sample 0.003 µg/mL in HBD serum pool; duplicate determination.
Assay [11] deals with wild type TSHR (human TSH receptor) expressed in CHO cells (human) (UniProt P16473). Briefly: cell-based or functional assay.
The target of assay [12] is TSHR with Lys129 mutated to Ala, expressed in CHO cells (human) (UniProt P16473). Briefly: cell-based or functional assay.
Assay [13] concerns the target TSHR (thyroid stimulating hormone receptor), full length human (human) (UniProt P16473). Briefly: competitor ^125I-K1-70 IgG, TSHR coated tubes; 0.1 µg/mL in HBD.
Assay [14] deals with TSH receptor (TSHR), full length human, coated on tubes (human) (UniProt P16473). Nature of the assay: inhibition of 125I-K1-18 IgG binding to TSHR coated tubes; competitor 125I-K1-18 IgG; sample at 10 µg/mL in HBD serum.
For assay [15] the target is unchanged. Nature of the assay: inhibition of 125I-TSH binding to TSHR coated tubes; 0.01 µg/mL, diluted in assay buffer.
Assay [16] concerns the target TSHR (thyroid stimulating hormone receptor), full length human (human) (UniProt P16473). Nature of the assay: competitor ^125I-K1-70 IgG, TSHR coated tubes; 10 µg/mL in HBD.
Assay [17] addresses TSH receptor (full length human TSHR) (human) (UniProt P16473). Briefly: competition ELISA: inhibition of M22 Fab-peroxidase (competitor) binding to TSHR coated wells; test sample at 10 µg/mL diluted in assay buffer.
Assay [18] deals with TSH receptor (TSHR), full length human, coated on tubes (human) (UniProt P16473). Briefly: inhibition of 125I-K1-18 IgG binding to TSHR coated tubes; competitor 125I-K1-18 IgG; sample at 0.1 µg/mL in assay buffer.
Assay [19] concerns the target thyroid stimulating hormone receptor (TSHR), full length, coated on tubes (human) (UniProt P16473). Nature of the assay: inhibition of 125I-TSH binding, TSHR coated tubes; antibody 0.01 µg/mL in assay buffer; mean of duplicate.
Assay [20] addresses TSH receptor (TSHR), full length human, coated on tubes (human) (UniProt P16473). Briefly: inhibition of 125I-K1-18 IgG (competitor) binding to TSHR coated tubes; test sample at 10 µg/mL in HBD serum pool.
Assay [21] has the same target. Nature of the assay: inhibition of 125I-K1-18 IgG (competitor) binding to TSHR coated tubes; test sample at 0.01 µg/mL in assay buffer.
Assay [22] has as its target thyroid stimulating hormone receptor (full length human TSHR) (human) (UniProt P16473). Briefly: ELISA: inhibition of M22 Fab-peroxidase (competitor) binding to TSHR coated wells; 100 µg/mL, diluted in assay buffer.
Assay [23] deals with TSH receptor (TSHR), full length human, coated on tubes (human) (UniProt P16473). Briefly: inhibition of 125I-TSH binding to TSHR coated tubes; 10 µg/mL, diluted in HBD serum pool.
Assay [24] concerns the target human TSH receptor (full length) coated on ELISA plate wells (human) (UniProt P16473). Nature of the assay: TSH-biotin binding inhibition ELISA, TSHR coated wells; 1 µg/mL in assay buffer.
Assay [25] has as its target TSH receptor (TSHR) coated on tubes (human) (UniProt P16473). Briefly: inhibition of 125I-K1-70 IgG binding to TSHR coated tubes; sample 10 µg/mL in assay buffer.

For 5B3 IgG (antibody), the Inhibition of binding (%) in assay [1] was -8.3%; in assay [3], -12.1%; in assay [5] it was -1.5%; in assay [6], 4.9%; in assay [7] it was -0.1%; in assay [8], 4.2%. In addition, the % inhibition of TSH-biotin binding in [2] is -2%; in assay [4] it was 1.1%; in [9] it was 8.6%.
As for M22 IgG (antibody), in [10], the Inhibition of binding (%) came out at 6.2%.
In assay [11], TSH (ligand) had a Cyclic AMP produced, wild type TSHR, TSH 0.01 ng/mL of 2.01 pmol/mL; a Cyclic AMP produced, wild type TSHR, TSH 0.03 ng/mL of 3.32 pmol/mL; a Cyclic AMP produced, wild type TSHR, TSH 0.1 ng/mL of 9.69 pmol/mL; a Cyclic AMP produced, wild type TSHR, TSH 0.3 ng/mL of 26.1 pmol/mL. Also, in assay [11], the Cyclic AMP produced, wild type TSHR, TSH 1 ng/mL turned out to be 46.3 pmol/mL and the Cyclic AMP produced, wild type TSHR, TSH 3 ng/mL turned out to be 48.1 pmol/mL. In addition, in assay [12], the Cyclic AMP produced, mutated TSHR, TSH 0.01 ng/mL came out at 2.69 pmol/mL; the Cyclic AMP produced, mutated TSHR, TSH 0.03 ng/mL came to 5.34 pmol/mL; the Cyclic AMP produced, mutated TSHR, TSH 0.1 ng/mL came out at 12.7 pmol/mL; the Cyclic AMP produced, mutated TSHR, TSH 0.3 ng/mL was found to be 29 pmol/mL. In assay [12], this molecule yielded a Cyclic AMP produced, mutated TSHR, TSH 1 ng/mL of 40.8 pmol/mL; a Cyclic AMP produced, mutated TSHR, TSH 3 ng/mL of 48.5 pmol/mL; a Mutated/Wild type (%) of cyclic AMP produced, TSH 0.01 ng/mL of 134%; a Mutated/Wild type (%) of cyclic AMP produced, TSH 0.03 ng/mL of 161%. Further, in [12], the Mutated/Wild type (%) of cyclic AMP produced, TSH 0.1 ng/mL worked out at 131%; the Mutated/Wild type (%) of cyclic AMP produced, TSH 0.3 ng/mL worked out at 111%; the Mutated/Wild type (%) of cyclic AMP produced, TSH 1 ng/mL came out at 88%; the Mutated/wild type (%) of cyclic AMP produced; TSH 3 ng/mL was determined as 101%.
On to 9D33 IgG (antibody), for which the Inhibition of binding (%) in [13] worked out at 14.8%; in assay [14], 68.1%; in assay [15] it was 15.8%; in [16] it was 48%; in assay [17] it was 64.2%; in assay [18] it was 54.8%.

B1: 5C9 IgG (antibody, from another filing, V domains shown)
VH: EVQLVESGGGLIQPGGSLRLSCAASGFTVSSNYMSWVRQAPGKGLEWVSVTYSGGSTSYADSVKGRFTISRDNSKNTLYLQMNSLRAEDTAVYYCARGGRYCSSISCYARSGCDYWGQGTLVTVSS
VL: AIQMTQSPSSLSASVGDRVTITCRASQSISNYLNWYQQKPGKAPKLLIYAASSLQSGVPSRFSGSGSGTDFTLTISSLQPEDFATYYCQQSYSSPSTTFGQGTKLEIK
B1: the Inhibition of binding (%) in assay [19] came out at 15.9%; in assay [20], 46.7%; in [21], 11.7%; in assay [22], 24.6%; in [23] it was 39.9%; in [25], 84.8%. Moreover, in assay [24], the % inhibition of TSH-biotin binding is 42.9%.

The record behind these values is patent publication US20110300138A1 (published 2011).
